This is an account of results in patent US20020004485A1.

Experiment [1] has as its target MC receptor endogenous to Xenopus laevis melanophores (Xenopus laevis). Description: cell-based or functional assay.
Experiment [2] addresses atypical MC receptor of Cos-7 cells. The experiment is described as follows: cell-based or functional assay.
For experiment [3], the target named is human MCR-1 receptor (human) (UniProt Q01726). The experiment is described as follows: cell-based or functional assay.
Chain of human MCR-1 receptor (human) (Q01726 whole entry): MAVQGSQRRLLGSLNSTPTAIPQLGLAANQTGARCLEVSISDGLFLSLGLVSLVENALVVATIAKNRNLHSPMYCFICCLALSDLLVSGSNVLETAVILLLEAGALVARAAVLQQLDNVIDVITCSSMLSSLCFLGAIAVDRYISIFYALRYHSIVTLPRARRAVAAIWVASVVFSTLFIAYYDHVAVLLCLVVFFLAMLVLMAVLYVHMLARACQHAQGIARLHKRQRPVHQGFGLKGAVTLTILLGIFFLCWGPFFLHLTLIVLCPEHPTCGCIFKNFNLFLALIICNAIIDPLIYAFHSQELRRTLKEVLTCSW
The target of experiment [4] is human MCR-3 receptor (human) (UniProt P41968). Description: cell-based or functional assay.
Chain of human MCR-3 receptor (human) (P41968 whole entry): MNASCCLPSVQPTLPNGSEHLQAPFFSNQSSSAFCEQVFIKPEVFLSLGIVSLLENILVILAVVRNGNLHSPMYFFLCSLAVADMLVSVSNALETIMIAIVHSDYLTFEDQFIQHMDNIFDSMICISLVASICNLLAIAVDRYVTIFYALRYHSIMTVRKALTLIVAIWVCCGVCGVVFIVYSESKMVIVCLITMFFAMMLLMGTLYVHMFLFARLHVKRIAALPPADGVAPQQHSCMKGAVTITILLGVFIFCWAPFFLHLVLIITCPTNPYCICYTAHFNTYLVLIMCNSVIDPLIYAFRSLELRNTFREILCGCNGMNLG
In experiment [5] the target is human MCR-4 receptor (human) (UniProt P32245). Description: cell-based or functional assay.
Chain of human MCR-4 receptor (human) (P32245 whole entry): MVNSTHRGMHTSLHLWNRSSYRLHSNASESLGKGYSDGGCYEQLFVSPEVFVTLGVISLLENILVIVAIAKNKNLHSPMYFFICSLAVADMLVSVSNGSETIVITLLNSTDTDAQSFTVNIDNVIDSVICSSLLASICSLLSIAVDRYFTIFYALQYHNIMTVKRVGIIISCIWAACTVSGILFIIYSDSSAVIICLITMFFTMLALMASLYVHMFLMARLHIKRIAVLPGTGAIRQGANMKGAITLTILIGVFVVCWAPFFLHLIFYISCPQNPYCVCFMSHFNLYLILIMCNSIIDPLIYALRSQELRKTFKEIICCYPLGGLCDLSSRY
Experiment [6] concerns the target atypical MC receptor of Cos-7 cells. The experiment is described as follows: estimated from the shift of the α-MSH cAMP curve in Cos-7 cells (functional).
The target in experiment [7] is MC receptor endogenous to Xenopus laevis melanophores (Xenopus laevis). Description: Schild plot; antagonism of α-MSH pigment dispersion in Xenopus melanophores (functional).
The target in experiment [8] is ACTH (MCR-2) receptor endogenous to murine Y1 adrenocortical cells (murine) (UniProt Q64326). The experiment is described as follows: cell-based or functional assay.
Chain of ACTH (MCR-2) receptor endogenous to murine Y1 adrenocortical cells (murine) (Q64326 whole entry): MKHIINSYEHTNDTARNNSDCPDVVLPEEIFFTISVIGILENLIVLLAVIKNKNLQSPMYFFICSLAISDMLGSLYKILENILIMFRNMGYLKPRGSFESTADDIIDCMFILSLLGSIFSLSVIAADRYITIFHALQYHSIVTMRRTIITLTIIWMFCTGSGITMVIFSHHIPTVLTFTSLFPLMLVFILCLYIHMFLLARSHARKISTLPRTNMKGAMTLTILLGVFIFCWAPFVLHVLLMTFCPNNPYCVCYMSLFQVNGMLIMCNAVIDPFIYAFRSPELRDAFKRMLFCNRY

In turn, “dynorphin A(1-13)-NH2 (from UniProt P01213 207-219) (peptide)” returned an IC50 nM in Frog Melanophore Assay in experiment [1] of 145 nM. For the same substance, the fold shift of the α-MSH EC50 by 30 µM dynorphin A(1-13)-NH2 in experiment [2] worked out at 50 fold. The EC50 of α-MSH in the presence of 30 µM dynorphin A(1-13)-NH2, MCR-1 in experiment [3] is 2100 nM. Further, in experiment [4], the EC50 of α-MSH in the presence of 30 µM dynorphin A(1-13)-NH2, MCR-3 came out at 1600 nM. The EC50 of α-MSH in the presence of 30 µM dynorphin A(1-13)-NH2, MCR-4 in experiment [5] worked out at 2000 nM. Also, the Kd (commonly the equilibrium constant for the complex coming apart) in experiment [6] was 1000 nM. Further, the Ki – broadly, the equilibrium dissociation constant of an inhibitor or competing ligand from its target – in experiment [7] was 71 nM.

Regarding “dynorphin A(2-13) (from UniProt P01213 176-187) (peptide)”, in experiment [8], the EC50 of ACTH-(1-24) in the presence of 30 µM dynorphin A(2-13) turned out to be 28 nM and the fold shift to the right of the concentration-response curve of ACTH-(1-24) at 30 µM was 15 fold. The dose ratio of α-MSH dose-response curves with and without 30 µM dynorphin A(2-13), MCR-1 in experiment [3] came to 250. Further, in experiment [4], the dose ratio of α-MSH dose-response curves with and without 30 µM dynorphin A(2-13), MCR-3 is 128. Besides, in experiment [5], the dose ratio of α-MSH dose-response curves with and without 30 µM dynorphin A(2-13), MCR-4 came out at 147. The substance further came in with a Ki in experiment [7] of 79 nM.

In experiment [1], “neurotensin(8-13) analog, D-Arg-Arg-Pro-Trp-Ile-Leu (peptide)” returned an IC50 in the frog MCR assay of more than 10000 nM.

As to “p-anisoyl-[D-Arg^6,9, D-Lys^11, D-Leu^12] dynorphin A(6-12)-NH2 (peptide)”, in experiment [7], the Ki was 12 nM and the pKi (as a rule, −log10 of the Ki, conventionally taken in molar units) is 7.91.

urocortin (peptide): the IC50 in the frog MCR assay in experiment [1] is more than 10000 nM.
